In doi:10.1101/2024.03.06.583760 (bioRxiv, 2024):
“And” between values parts separate entries of the source, which are not always exact repeats. Equal entries are not always repeated.

Molecular target: the molecule itself
Assay: cryo-EM 2D classification

B1: α-latrotoxin (natural protein)
chain: EGEDLTLEEKAEICSELELQQKYVDIASNIIGDLSSLPIAGKIAGTIAAAAMTATHVASGRLDIEQTLLGCSDLPFDQIKEVLENRFNEIDRKLDSHSAALEEITKLVEKSISVVEKTRKQMNKRFDEVMKSIQDAKVSPIISKINNFARYFDTEKERIRGLKLNDYILKLEEPNGILLHFKESRTPTDDSLQAPLFSIIEEGYAVPKSIDDELAFKVLYALLYGTQTYVSVMFFLLEQYSFLANHYYEKGYLEKYDEYFNSLNNVFLDFKSSLVGTGTSNNEGLLDRVLQVLMTVKNSEFLGLEKNGVDEMLNEKINLFNKIKEEIEGKQKMTLSETPENFAQISFDKDITTPIGDWRDGREVRYAVQYASETLFSKISHWSDPVSVREKACPTLRMPVDQTRRNVLVFRKFDSSKPQLVGEITPYLSNFIDIDRDLYNAASNPDSAVGFKEFTKLNYDGANIRATFDHGRTVFHAAAKSGNDKIMFGLTFLAKSTELNQPDKKGYTPIHVAADSGNAGIVNLLIQRGVSINSKTYHFLQTPLHLAAQRGFVTTFQRLMESPEININERDKDGFTPLHYAIRGGERILEAFLNQISIDVNAKSNTGLTPFHLAIIKNDWPVASTLLGSKKVDINAVDENNITALHYAAILGYLETTKQLINLKEINANVVSSPGLLSALHYAILYKHDDVASFLMRSSNVNVNLKALGGITPLHLAVIQGRKQILSLMFDIGVNIEQKTDEKYTPLHLAAMSKYPELIQILLDQGSNFEAKTNSGATPLHLATFKGKSQAALILLNNEVNWRDTDENGQMPIHGAAMTGLLDVAQAIISIDATVVDIEDKNSDTPLNLAAQNSHIDVIKYFIDQGADINTRNKKGLAPLLAFSKKGNLDMVKYLFDKNANVYIADNDGMNFFYYAVQNGHLNIVKYAMSEKDKFEWSNTDNNRRDECPNEECAISHFAVCDAVQFDRIEIVKYFVGTLGNFAICGPLHQAARYGHLDIVKYLVEEEFLSVDGSKTDTPLCYASENGHFTVVQYLVSNGAKVNHDCGNGMTAIDKAITKNHLQVVQFLAANGVDFRRKNSRGTTPFLTAVAENALHIAEYLIREKRQDININEQNVDKDTALHLAVYYKNLQMIKLLIKYGIDVTIRNAYDKTALDIAIDAKFSNIVEYLKTKSGKFRR
  stoichiometry N: 2 and 3 and 4
